Experimental findings from US20220275059A1 (HARBOUR ANTIBODIES, published 2022) are described below.

The experiment addresses peptide 24.end. The experiment can be described thus: ELISA on coated peptide 24.end, A450 [B].

B1: 2.6h11 (antibody, V domains shown)
VH: EVQLVESGGGLVQPGRSLRLSCTASGFTFGDYVMSWFRQAPGKGLEWVGFIRSKAHGGTTEYAASVNGRFSISRDDSKTIAYLQMNSLKSEDTAVYYCTWLRNDYYYGMDVWGLGTTVTVSS
VL: DIMMTQSPLSLPVTPGEPASISCRSSQRLLHSNGYSYVDWYLQKPGQSPQLLIYLGSDRASGVPDRFSGSGSGTDFTLKISRVEAEDVGVYYCMQTLQTPWTFGQGTKVEIKR
Turning to B1, the binding result was “no binding”.
